Measurements published in doi:10.1101/414334.
One block for each substance: values may come before it.

Legend:
[1] = biological target: phosphoribulokinase (PRK) of Thermosynechococcus elongatus, native (Thermosynechococcus elongatus (endogenous in T. elongatus cells)); assay: cryo-EM structure
[2] = biological target: glyceraldehyde-3-phosphate dehydrogenase (GAPDH) of Thermosynechococcus elongatus (Thermosynechococcus elongatus BP-1); assay: cryo-EM structure
[3] = biological target: glyceraldehyde-3-phosphate dehydrogenase (GAPDH) of Thermosynechococcus elongatus (Thermosynechococcus elongatus BP-1); assay: crystal structure
[4] = biological target: glyceraldehyde-3-phosphate dehydrogenase (GAPDH) of Thermosynechococcus elongatus (Thermosynechococcus elongatus BP-1); assay: crystal structure; remark: listed apart in the source

- stoichiometry N [1]: 2
Substance: phosphoribulokinase (PRK) of Thermosynechococcus elongatus, native (enzyme)

- stoichiometry N (CP12 per GAPDH tetramer) [2]: 2
- stoichiometry N (CP12 per GAPDH tetramer) [3]: 4
- stoichiometry N (CP12 per GAPDH tetramer) [4]: 2
Substance: CP12 of Thermosynechococcus elongatus (natural protein)

- stoichiometry N [2]: 4
- stoichiometry N [4]: 4
Substance: glyceraldehyde-3-phosphate dehydrogenase (GAPDH) of Thermosynechococcus elongatus (enzyme)
